In patent US20260201008A1, “SECRETIN-DERIVED GLP1R SELECTIVE AGONISTS” (GUBRA A/S, priority 2023, published 2026):
Numbered stars: 1 amine (or outer) side, 2 acyl side, 3 side chain; on linkers, the order of the positions; unused ones are H or OH. Square brackets hold non-standard residues; d marks the D form. Side chains are listed from the residue outwards. Ends that are not written are not given here. * marks the point of attachment. C20 diacid = O=C(O)CCCCCCCCCCCCCCCCCCC(=O)*; γGlu = O=C(O)[C@H](CCC(=O)[*:2])N[*:1]; AEEA = NCCOCCOCC(=O)O; Aib = CC(C)(N)C(=O)O

How the values were obtained:
[1] = target: human secretin receptor (hSCTR) (human, UniProt P47872 23-440); assay: cell-based or functional assay
[2] = target: human GLP-1 receptor (hGLP1R) (human, UniProt P43220 24-463); assay: cell-based or functional assay

Chain of human secretin receptor (hSCTR) (P47872 23-440): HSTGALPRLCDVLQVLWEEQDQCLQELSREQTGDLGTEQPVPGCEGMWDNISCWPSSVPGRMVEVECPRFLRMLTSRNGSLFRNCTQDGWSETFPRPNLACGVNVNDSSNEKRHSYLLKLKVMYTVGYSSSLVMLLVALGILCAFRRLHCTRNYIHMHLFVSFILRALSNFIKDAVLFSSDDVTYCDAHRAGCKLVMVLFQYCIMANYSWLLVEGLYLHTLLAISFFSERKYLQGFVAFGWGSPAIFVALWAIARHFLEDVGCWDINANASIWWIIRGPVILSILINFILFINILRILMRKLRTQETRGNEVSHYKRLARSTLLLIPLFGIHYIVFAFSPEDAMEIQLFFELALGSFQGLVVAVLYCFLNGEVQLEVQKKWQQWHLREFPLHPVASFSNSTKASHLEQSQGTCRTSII

Which “pEC50 hSCTR” value [1] does the source give for H[Aib]EGTFTSDVSYLK([AEEA-AEEA-γGlu-C20 diacid])ELAAAQRFLEHLV-NH2 [SEQ ID NO: 86] here?
Its value is 5.4 -log M.

What about the “pEC50 hGLPR1” value [2] of the same binder?
Its value is 9.7 -log M.

With H[Aib]EGTFTSDVSELK([AEEA-AEEA-γGlu-C20 diacid])EFAASQRFLEHLV-NH2 [SEQ ID NO: 8] as the binder, how does the “pEC50 hSCTR” value [1] read?
Its value is 5.8 -log M.

And the “pEC50 hGLPR1” value [2]?
The value was 10.3 -log M.

H[Aib]EGTFTSDVSRLK([AEEA-AEEA-γGlu-C20 diacid])EFAAEQRFLEHLV-NH2 [SEQ ID NO: 72] was tested. Which “pEC50 hSCTR” value [1] did it give?
Its value is 6 -log M.

And the “pEC50 hGLPR1” value [2]?
The value was 10 -log M.

Which results are given for H[Aib]EGTFTSDVSYLK([AEEA-AEEA-γGlu-C20 diacid])EFAAQQRFLEHLV-NH2 [SEQ ID NO: 76]?
pEC50 hSCTR [1]: 5 -log M; pEC50 hGLPR1 [2]: 10.1 -log M

H[Aib]EGTFTSD[Aib]SYLK([AEEA-AEEA-γGlu-C20 diacid])EEA[Aib]LQRFLEHLV-NH2 (also: K14 lipid also given as C18DA[γE][OEG][OEG]-) [SEQ ID NO: 103] was tested. Which “pEC50 hSCTR” value [1] did it give?
The value was 5 -log M.

And the “pEC50 hGLPR1” value [2]?
Its value is 11.1 -log M.

Which “pEC50 hSCTR” value [1] does the source give for H[Aib]EGTFTSDVSRLK([AEEA-AEEA-γGlu-C20 diacid])ELAAAQRFLEHLV-NH2 [SEQ ID NO: 9] here?
The value was 6 -log M.

What about the “pEC50 hGLPR1” value [2] of the same binder?
Its value is 10.2 -log M.

What does the source list for H[Aib]EGTFTSDVSVLK([AEEA-AEEA-γGlu-C20 diacid])EFAASQRFLEHLV-NH2 [SEQ ID NO: 92]?
pEC50 hSCTR [1]: 5.8 -log M; pEC50 hGLPR1 [2]: 10.1 -log M

Which results are given for H[Aib]EGTFTSDVSRLK([AEEA-AEEA-γGlu-C20 diacid])ETAA[Aib]QRFLEHLV-NH2 [SEQ ID NO: 85]?
pEC50 hSCTR [1]: 5.8 -log M; pEC50 hGLPR1 [2]: 9.9 -log M

For H[Aib]EGTFTSDVSRLK([AEEA-AEEA-γGlu-C20 diacid])ETAASQRFLEHLV-NH2 [SEQ ID NO: 71], which “pEC50 hSCTR” value [1] is on record?
The value was 6 -log M.

What about the “pEC50 hGLPR1” value [2] of the same binder?
Its value is 10.2 -log M.

With H[Aib]EGTFTSDVSFLK([AEEA-AEEA-γGlu-C20 diacid])EFAAAQRFLEHLV-NH2 [SEQ ID NO: 84] as the binder, how does the “pEC50 hSCTR” value [1] read?
The value was 5.4 -log M.

What about the “pEC50 hGLPR1” value [2] of the same binder?
Its value is 10.1 -log M.

Which “pEC50 hSCTR” value [1] does the source give for H[Aib]EGTFTSDVSVLK([AEEA-AEEA-γGlu-C20 diacid])EEAAQQRFLEHLV-NH2 [SEQ ID NO: 90] here?
Its value is 5.8 -log M.

And the “pEC50 hGLPR1” value [2]?
Its value is 10.5 -log M.

With H[Aib]EGTFTSDVSTLK([AEEA-AEEA-γGlu-C20 diacid])EEAA[Aib]QRFLEHLV-NH2 [SEQ ID NO: 77] as the binder, how does the “pEC50 hSCTR” value [1] read?
Its value is 5.8 -log M.

What about the “pEC50 hGLPR1” value [2] of the same binder?
The value was 10.7 -log M.

How did the “pEC50 hSCTR” value [1] turn out when H[Aib]EGTFTSDVSELK([AEEA-AEEA-γGlu-C20 diacid])EEAASQRFLEHLV-NH2 [SEQ ID NO: 87] was run?
The value was 5.8 -log M.

What about the “pEC50 hGLPR1” value [2] of the same binder?
The value was 10.4 -log M.

With H[Aib]EGTFTSDVSTLK([AEEA-AEEA-γGlu-C20 diacid])E[Aib]AAQQRFLEHLV-NH2 [SEQ ID NO: 88] as the binder, how does the “pEC50 hSCTR” value [1] read?
The value was 6.8 -log M.

What about the “pEC50 hGLPR1” value [2] of the same binder?
Its value is 11.4 -log M.

What does the source list for H[Aib]EGTFTSDVSFLK([AEEA-AEEA-γGlu-C20 diacid])EFAASQRFLEHLV-NH2 [SEQ ID NO: 91]?
pEC50 hSCTR [1]: 4.5 -log M; pEC50 hGLPR1 [2]: 9.5 -log M

Which “pEC50 hSCTR” value [1] does the source give for H[Aib]EGTFTSDVSRLK([AEEA-AEEA-γGlu-C20 diacid])EEAAQQRFLEHLV-NH2 [SEQ ID NO: 73] here?
The value was 7.1 -log M.

And the “pEC50 hGLPR1” value [2]?
The value was 11.2 -log M.

Which “pEC50 hSCTR” value [1] does the source give for H[Aib]EGTFTSDVSELKEEAA[Aib]QRFLEHLV-NH2 (not fully specified (residue 14)) [SEQ ID NO: 97] here?
Its value is 5.8 -log M.

What about the “pEC50 hGLPR1” value [2] of the same binder?
The value was 11 -log M.

How did the “pEC50 hSCTR” value [1] turn out when H[Aib]EGTFTSDVSELKELAAQQRFLEHLV-NH2 (not fully specified (residue 14)) [SEQ ID NO: 99] was run?
Its value is 6.1 -log M.

What about the “pEC50 hGLPR1” value [2] of the same binder?
The value was 10.8 -log M.

For H[Aib]EGTFTSDVSTLK([AEEA-AEEA-γGlu-C20 diacid])ETAATQRFLEHLV-NH2 (not fully specified) [SEQ ID NO: 93], which “pEC50 hSCTR” value [1] is on record?
Its value is 6.5 -log M.

What about the “pEC50 hGLPR1” value [2] of the same binder?
The value was 11 -log M.

For H[Aib]EGTFTSDVSYLK([AEEA-AEEA-γGlu-C20 diacid])EEAASQRFLEHLV-NH2 [SEQ ID NO: 75], which “pEC50 hSCTR” value [1] is on record?
The value was 5.5 -log M.

And the “pEC50 hGLPR1” value [2]?
Its value is 10.6 -log M.

Which “pEC50 hSCTR” value [1] does the source give for H[Aib]EGTFTSDVSFLK([AEEA-AEEA-γGlu-C20 diacid])EEAAQQRFLEHLV-NH2 [SEQ ID NO: 83] here?
Its value is 5.8 -log M.

And the “pEC50 hGLPR1” value [2]?
Its value is 10.5 -log M.

H[Aib]EGTFTSDVSFLK([AEEA-AEEA-γGlu-C20 diacid])ETAATQRFLEHLV-NH2 [SEQ ID NO: 70] was tested. Which “pEC50 hSCTR” value [1] did it give?
Its value is 7 -log M.

And the “pEC50 hGLPR1” value [2]?
Its value is 10.7 -log M.

Which results are given for H[Aib]EGTFTSDVSRLK([AEEA-AEEA-γGlu-C20 diacid])E[Aib]AAAQRFLEHLV-NH2 [SEQ ID NO: 81]?
pEC50 hSCTR [1]: 7.1 -log M; pEC50 hGLPR1 [2]: 10.1 -log M

For H[Aib]EGTFTSDVSFLK([AEEA-AEEA-γGlu-C20 diacid])E[Aib]AASQRFLEHLV-NH2 [SEQ ID NO: 74], which “pEC50 hSCTR” value [1] is on record?
The value was 4.9 -log M.

And the “pEC50 hGLPR1” value [2]?
The value was 10.2 -log M.

How did the “pEC50 hSCTR” value [1] turn out when H[Aib]EGTFTSDVSELK([AEEA-AEEA-γGlu-C20 diacid])E[Aib]AATQRFLEHLV-NH2 [SEQ ID NO: 82] was run?
The value was 7 -log M.

And the “pEC50 hGLPR1” value [2]?
Its value is 11 -log M.

How did the “pEC50 hSCTR” value [1] turn out when H[Aib]EGTFTSDVSTLK([AEEA-AEEA-γGlu-C20 diacid])ELAAEQRFLEHLV-NH2 [SEQ ID NO: 78] was run?
The value was 5.4 -log M.

What about the “pEC50 hGLPR1” value [2] of the same binder?
Its value is 10.3 -log M.

With H[Aib]EGTFTSDVSTLK([AEEA-AEEA-γGlu-C20 diacid])EEAATQRFLEHLV-NH2 (also: K14 lipid also given as C18DA[γE][OEG][OEG]-) [SEQ ID NO: 102] as the binder, how does the “pEC50 hSCTR” value [1] read?
Its value is 7.1 -log M.

And the “pEC50 hGLPR1” value [2]?
Its value is 11 -log M.

Which results are given for H[Aib]EGTFTSDVSRLK([AEEA-AEEA-γGlu-C20 diacid])ELAA[Aib]QRFLEHLV-NH2 (also: K14 lipid also given as C18DA[γE][OEG][OEG]-) [SEQ ID NO: 10]?
pEC50 hSCTR [1]: 6.3 -log M; pEC50 hGLPR1 [2]: 9.7 -log M

Which “pEC50 hSCTR” value [1] does the source give for H[Aib]EGTFTSDVSVLK([AEEA-AEEA-γGlu-C20 diacid])ETAA[Aib]QRFLEHLV-NH2 (also: K14 lipid also given as C18DA[γE][OEG][OEG]-) [SEQ ID NO: 101] here?
Its value is 6 -log M.

What about the “pEC50 hGLPR1” value [2] of the same binder?
The value was 9.7 -log M.

Which results are given for H[Aib]EGTFTSDVSTLK([AEEA-AEEA-γGlu-C20 diacid])EFAAEQRFLEHLV-NH2 [SEQ ID NO: 89]?
pEC50 hSCTR [1]: 5.7 -log M; pEC50 hGLPR1 [2]: 10.7 -log M

Which results are given for H[Aib]EGTFTSDVSYLKEEAAEQRFLEHLV-NH2 (not fully specified (residue 14)) [SEQ ID NO: 95]?
pEC50 hSCTR [1]: 4.8 -log M; pEC50 hGLPR1 [2]: 10.7 -log M

Which results are given for H[Aib]EGTFTSDVSELKEEAAAQRFLEHLV-NH2 (not fully specified (residue 14)) [SEQ ID NO: 98]?
pEC50 hSCTR [1]: 5.9 -log M; pEC50 hGLPR1 [2]: 10.6 -log M

H[Aib]EGTFTSDVSTLKEEAAAQRFLEHLV-NH2 (not fully specified (residue 14)) [SEQ ID NO: 96] was tested. Which “pEC50 hSCTR” value [1] did it give?
Its value is 6.4 -log M.

What about the “pEC50 hGLPR1” value [2] of the same binder?
The value was 10.9 -log M.

What does the source list for H[Aib]EGTFTSDVSTLK([AEEA-AEEA-γGlu-C20 diacid])ELAA[Aib]QRFLEHLV-NH2 [SEQ ID NO: 79]?
pEC50 hSCTR [1]: 5.5 -log M; pEC50 hGLPR1 [2]: 10 -log M

For H[Aib]EGTFTSDVSTLK([AEEA-AEEA-γGlu-C20 diacid])EFAAQQRFLEHLV-NH2 (also: K14 lipid also given as C18DA[γE][OEG][OEG]-) [SEQ ID NO: 100], which “pEC50 hSCTR” value [1] is on record?
Its value is 6.1 -log M.

And the “pEC50 hGLPR1” value [2]?
Its value is 9.9 -log M.

H[Aib]EGTFTSDVSELK([AEEA-AEEA-γGlu-C20 diacid])ELAATQRFLEHLV-NH2 [SEQ ID NO: 80] was tested. Which “pEC50 hSCTR” value [1] did it give?
Its value is 6.1 -log M.

What about the “pEC50 hGLPR1” value [2] of the same binder?
Its value is 10.7 -log M.

For H[Aib]EGTFTSDVSYLKE[Aib]AAQQRFLEHLV-NH2 (not fully specified (residue 14)) [SEQ ID NO: 94], which “pEC50 hSCTR” value [1] is on record?
The value was 6 -log M.

What about the “pEC50 hGLPR1” value [2] of the same binder?
Its value is 11 -log M.
